# From patent US20240010747A1, “ANTI-MRP4 (ENCODED BY ABCC4 GENE) ANTIBODIES AND USES THEREOF” (Kenjockety Biotechnology, Inc., priority 2020, published 2024)
# T1: human ABCC4 (Homo sapiens, UniProt O15439)
# T1 construct: expressed in transfected cells
# T1 sequence (O15439 1-1325): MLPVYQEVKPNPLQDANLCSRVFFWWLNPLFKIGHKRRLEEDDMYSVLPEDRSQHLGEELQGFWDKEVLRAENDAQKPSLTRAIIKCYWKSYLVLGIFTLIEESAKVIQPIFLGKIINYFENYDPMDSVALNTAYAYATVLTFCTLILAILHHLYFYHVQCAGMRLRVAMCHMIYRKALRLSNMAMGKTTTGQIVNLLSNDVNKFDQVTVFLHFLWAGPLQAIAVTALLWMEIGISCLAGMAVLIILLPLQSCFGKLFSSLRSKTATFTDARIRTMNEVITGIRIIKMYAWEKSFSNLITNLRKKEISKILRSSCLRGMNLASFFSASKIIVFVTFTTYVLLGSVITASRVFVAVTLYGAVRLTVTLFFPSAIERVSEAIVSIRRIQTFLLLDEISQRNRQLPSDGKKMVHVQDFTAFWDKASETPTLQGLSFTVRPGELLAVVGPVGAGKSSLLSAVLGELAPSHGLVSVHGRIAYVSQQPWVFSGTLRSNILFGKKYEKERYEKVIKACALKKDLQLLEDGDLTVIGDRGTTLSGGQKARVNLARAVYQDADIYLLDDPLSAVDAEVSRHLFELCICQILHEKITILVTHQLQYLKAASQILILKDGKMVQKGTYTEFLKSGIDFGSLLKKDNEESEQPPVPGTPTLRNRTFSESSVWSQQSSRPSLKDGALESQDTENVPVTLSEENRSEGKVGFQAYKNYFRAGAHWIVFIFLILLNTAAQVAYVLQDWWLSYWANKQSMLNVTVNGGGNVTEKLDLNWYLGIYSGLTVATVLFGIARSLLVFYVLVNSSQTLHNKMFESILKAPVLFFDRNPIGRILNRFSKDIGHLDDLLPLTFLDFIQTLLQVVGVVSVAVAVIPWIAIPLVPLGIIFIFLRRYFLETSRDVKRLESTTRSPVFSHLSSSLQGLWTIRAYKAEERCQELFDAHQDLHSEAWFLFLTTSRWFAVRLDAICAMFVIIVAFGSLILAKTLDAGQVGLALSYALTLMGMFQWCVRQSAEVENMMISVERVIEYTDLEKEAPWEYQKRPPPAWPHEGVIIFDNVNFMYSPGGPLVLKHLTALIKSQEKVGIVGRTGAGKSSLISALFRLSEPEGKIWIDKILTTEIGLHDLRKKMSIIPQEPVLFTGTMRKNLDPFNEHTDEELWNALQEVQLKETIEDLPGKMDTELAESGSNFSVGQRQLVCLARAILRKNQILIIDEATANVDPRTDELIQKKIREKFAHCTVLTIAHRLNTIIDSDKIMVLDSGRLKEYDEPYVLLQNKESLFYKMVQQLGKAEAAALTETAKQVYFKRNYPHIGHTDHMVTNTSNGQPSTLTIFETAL
# B1: C4.1059 (antibody, V domains shown)
# VH: QVQLLQSGAALVKPGASVKMSCKPSGYTFTDYWVSWVKQSHGKSLEWIGEIYPNNGATNFNEKFKGKATLTVDKSTSTAYMELSRLTSEDSAIYYCPSRKYGYNWNFDYWGQGTMVTVSS
# VL: DIVLTQSPALAVSLGQRATISCWASQSVSISRYNLMHWYQQKPGQQPKLLIYRASNLASGIPARFSGSGSGTDFTLTINPVQADDIATYYCQQSGESPWTFGGGTKLELK
# B2: C4.1139 (antibody, V domains shown)
# VH: EVQLVESDGGLVQPGRSLKLSCAASGFTFSDYYMAWVRQAPTKGLYWVASISYDGSTTYYRDSVKGRFTISRDNAKSTLYLQMGSLRSEDTATYYCARLSIRYKGVMDAWGRGASVTVSS
# VL: DVVMTQSPSNLAASPGESVSINCKASKSIGKFLAWYQQKPGRPNKLLIYSGSTLQSGTPSRFSGSGSGTDFTLTIRNLEPGDFGLYYCQHHIEYPPTFGPGTKLELK
# B3: C4.1148 (antibody, V domains shown)
# VH: EVQLVESDGGLVQPGRSLKLSCAASGFTFSDYYMAWVRQAPPKGLEWVATISYDAFTTYYRDSVKGRFTISRDNAKTILFLQMDSLRSEDTATYYCIRLSTRYKGVMDAWGHGASVTVSS
# VL: DIQMTQSPSNLAASPGESVSINCKASETIYKYLAWYQQKPGRTNKLLIYSGSTLQSGTPSRFSGSGSGTDFTLTIRNLEPEDFGRYYCQHHVEYPPTFGAGTKLELK
# Molecular target: T1, human ABCC4
# Experiment: Flow cytometry (FACS) binding to C6 cells stably transfected to express human ABCC4 (different experiment, Table 4)
# Conditions: C6 cells stably transfected to express human ABCC4, FACS; different experiment, Table 4
# Outline: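 Murine C6 cells stably expressing FLAG-tagged human or cynomolgus ABCC4 incubated 30 min on ice with antibodies, either 5 ug/mL or serially diluted from 100 ug/mL, in PBS+2% FBS+0.02% azide. Detection with PE anti-human IgG F(ab′)2 by flow cytometry; EC50 at half-maximal MFI; negative below background, positive >3× background.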
row,Molecule,Human ABCC4 binding
1,B1,+ (Positive (+)=MFI>3× background level)
2,B2,+ (Positive (+)=MFI>3× background level)
3,B3,+ (Positive (+)=MFI>3× background level)
